According to PMC6023178, “Crystal structure of the C-terminal four-helix bundle of the potassium channel KCa3.1” (PLoS ONE, 2018):
Square brackets hold non-standard residues; d marks the D form. Ends that are not written are not given here. SeMet = C[Se]CC[C@H](N)C(=O)O

B1: SeMet-containing KCa3.1-CC (C-terminal coiled-coil region of human KCa3.1, residues 376-415) (domain or fragment, UniProt O15554 376-415, looked up)
chain: [SeMet]ILYDLQQNLSSSHRALEKQIDTLAGKLDALTELLSTALG
notes: KCa3.1 (SK4, IK1), human, C-terminal coiled-coil region, residues 376-415; residues 376-414 are in the atomic model; Crystallised in the presence of 3 mM CuCl2; a Cu(II) ion is coordinated by the four copies of His389; also called SeMet KCa3.1-CC; SeMet SK4-CC (w/copper); source: E. coli B834(DE3), PASM-5052 auto-induction medium, purified (GST-trap, thrombin cleavage, Superdex 75); not shown: …
B2: native KCa3.1-CC (C-terminal coiled-coil region of human KCa3.1, residues 376-415) (domain or fragment, UniProt O15554 376-415, looked up)
chain: MILYDLQQNLSSSHRALEKQIDTLAGKLDALTELLSTALG
notes: KCa3.1 (SK4, IK1), human, C-terminal coiled-coil region, residues 376-415; Crystallised without copper (apo); also called native, apo KCa3.1-CC; source: E. coli BL21-Gold(DE3)pLysS, purified (GST-trap, thrombin cleavage, Superdex 75); not shown: GST, N-terminal, cleaved

Columns and labels:
[1] = target: the molecule itself; assay: crystal structure; SeMet-containing KCa3.1-CC crystallised with 3 mM CuCl2; 0.1 M imidazole (pH 6.5), 1.0 M sodium acetate; space group P4212, 1.75 Å; four-helix bundle generated by the crystallographic four-fold axis
[2] = target: the molecule itself; assay: crystal structure; native KCa3.1-CC crystallised without copper (apo); 0.1 M imidazole (pH 6.5), 1.0 M sodium acetate; 1.75 Å, molecular replacement, only partially refined

Protein | stoichiometry N [1] | binding result [2]
B1 | 4 | 
B2 |  | binds
